Measurements as given in patent US12012453B2, “Methods for treating late-stage small cell lung cancer by administering a human anti-PD-L1 antibody, an etoposide and a platinum-based therapeutic” (ASTRAZENECA AB, priority 2019, dated 2024).

Columns and labels:
[1] = system: patients with ES-SCLC; assay: CASPIAN phase 3 trial: overall survival and progression-free survival, intention-to-treat population; type: in vivo, human; details: ITT
Method: (§1) Eligible patients included adults with histologically or cytologically documented ES-SCLC and were treatment naïve. […] Patients with brain metastases were eligible provided they were asymptomatic or treated and stable off steroids and anticonvulsants for at least 1 month prior to study entry.
Randomization was stratified according to planned platinum agent.
Survival was assessed every 2 months following treatment discontinuation.
The primary endpoint was OS (time from randomization to death from any cause). Secondary endpoints included progression-free survival (PFS; time from randomization to the date of objective disease progression or death from any cause in the absence of progression), objective response rate (ORR), OS at 18 and 24 months, PFS at 6 and 12 months, and safety. PFS and ORR were assessed according to RECIST v1.1.

[2] = system: patients with ES-SCLC; assay: CASPIAN phase 3 trial: tumor response per RECIST v1.1 (objective response, duration of response); type: in vivo, human; details: for Odds ratio (95% CI) for ORR versus EP: logistic regression adjusted for platinum agent
Method: as §1
Randomization was stratified according to planned platinum agent. […]
The primary endpoint was OS (time from randomization to death from any cause). […] PFS and ORR were assessed according to RECIST v1.1.

[3] = system: patients with ES-SCLC; details: in vivo
Method: (§2) Patients were randomized in a 1:1:1 ratio to receive durvalumab 1500 mg plus EP, durvalumab 1500 mg plus tremelimumab 75 mg plus EP, or EP (FIG. 1). Across all three study arms, chemotherapy consisted of etoposide 80-100 mg/m^2 (administered on days 1 to 3 of each cycle), with either carboplatin area under the curve 5-6 mg/mL/min or cisplatin 75-80 mg/m^2 (administered on day 1 of each cycle). Randomization was stratified according to planned platinum agent. Patients in the immunotherapy arms received up to 4 cycles of EP plus durvalumab every 3 weeks (q3w) followed by maintenance durvalumab 1500 mg every 4 weeks (q4w). Patients in the EP arm could receive an additional 2 cycles of EP (up to 6 cycles total) and prophylactic cranial irradiation (PCI). Patients continued treatment until Response Evaluation Criteria in Solid Tumor version 1.1 (RECIST v1.1)-defined disease progression, unacceptable toxicity, or other discontinuation criteria were met. Continuation of study treatment following disease progression was permitted if there was evidence of clinical benefit (FIG. 1). In-study crossover from the EP to the immunotherapy plus EP arms was not allowed.
(§3) Tumor imaging was performed every 6 weeks for the first 12 weeks, and every 8 weeks thereafter, until confirmed objective disease progression. Survival was assessed every 2 months following treatment discontinuation.
(§4) All patients who received at least one dose of study treatment were included in safety analyses.

[4] = system: patients with ES-SCLC; assay: CASPIAN phase 3 trial: treatment-related adverse events (safety population)
Method: as §2, §3, §4

[5] = target: human CTLA-4 (Homo sapiens, UniProt P16410); details: cited from earlier work
[6] = system: Fc receptors; details: cited from earlier work
[7] = system: natural killer (NK) ADCC activity; details: cited from earlier work
[8] = final analysis, Kaplan-Meier, listed as D+EP

Sequence of human CTLA-4 (P16410 36-223): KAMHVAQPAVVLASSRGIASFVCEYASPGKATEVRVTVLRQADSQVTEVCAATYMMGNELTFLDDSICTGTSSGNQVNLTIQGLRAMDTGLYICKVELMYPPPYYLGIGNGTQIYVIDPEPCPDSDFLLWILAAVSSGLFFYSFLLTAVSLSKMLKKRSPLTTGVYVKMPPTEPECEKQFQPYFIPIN

In the case of Durvalumab + EP, the “patients who had died” value ([1]; final analysis data cutoff) is reported as 78%, the “patients who had disease progression or died” value ([1]; final data cutoff) is reported as 87% and the “12-month PFS rate” value ([1]; final/updated analysis) is reported as 17.9%. The “24-month PFS rate” value ([1]; final/updated analysis) was 11.0%, the “HR for PFS versus EP” value ([1]; final/updated analysis) was 0.80 and the “Median OS” value ([1]; final/updated analysis) was 12.9 months. The “Median PFS” value ([1]; final/updated analysis) was 5.1 months, the “HR for OS versus EP” value ([1]; final/updated analysis, Cox model stratified by platinum agent) was 0.75 and the “24-month OS rate” value ([1]; final/updated analysis, Kaplan-Meier) was 22.2%. The “Best objective response: Complete response” value ([2]; final analysis) was 7 (3) n (%), the “Best objective response: Not evaluable” value ([2]; final analysis) was 3 (1) n (%) and the “Best objective response: Partial response” value ([2]; final analysis) was 175 (65) n (%). The “Best objective response: Progressive disease” value ([2]; final analysis) was 32 (12) n (%), the “Best objective response: Stable disease for at least 6 weeks” value ([2]; final analysis) was 20 (7) n (%) and the “Best objective response: Unconfirmed response” value ([2]; final analysis) was 31 (12) n (%). For the same substance, the “Best reduction from baseline in target lesion size, Mean (SD)” value ([2]; final analysis) was −57.0 (24.59) %, the “Best reduction from baseline in target lesion size, Median (IQR)” value ([2]; final analysis) was −60.4 (−72.9, −44.3) % and the “Odds ratio vs EP (95% CI), confirmed objective response” value ([2]; final analysis) was 1.53 (1.08-2.18). The “Odds ratio vs EP (95% CI), unconfirmed objective response” value ([2]; final analysis) was 1.61 (1.09-2.40), the “Remaining in response at 6 months (95% CI)” value ([2]; final analysis, Kaplan-Meier) was 39.3 (32.2-46.3) % and the “Remaining in response at 12 months (95% CI)” value ([2]; final analysis, Kaplan-Meier) was 23.2 (17.3-29.7) %. For the same substance, the “Remaining in response at 24 months (95% CI)” value ([2]; final analysis, Kaplan-Meier) was 13.5 (8.7-19.3) %, the “Remaining in response at 12 months (95% CI)” value [2, 8] was 23.2% and the “Remaining in response at 24 months (95% CI)” value [2, 8] was 13.5%. For the same substance, the “Median (95% CI) duration of response” value ([2]; final analysis, confirmed responders, Kaplan-Meier) was 5.1 (4.9-5.3) months, the “Best reduction from baseline in target lesion size, Median (IQR)” value ([2]; final analysis, listed as D+EP) was −60.4% and the “Odds ratio vs EP (95% CI), confirmed objective response” value ([2]; final analysis, listed as D+EP) was 1.53. The confirmed objective response ([2]; final analysis, post hoc) was 68%, the “Best objective response: Not evaluable” value ([2]; interim analysis) was 3 (1.1) n (%) and the “Best objective response: Progressive disease” value ([2]; interim analysis) was 32 (11.9) n (%). The “Best objective response: Stable disease ≥6 weeks” value ([2]; interim analysis) was 20 (7.5) n (%), the “Remaining in response at 6 months” value ([2]; interim analysis) was 39.3% and the “Remaining in response at 12 months” value ([2]; interim analysis) was 22.7%. The “confirmed ORR” value ([2]; interim analysis) was 67.9%, the confirmed complete response ([2]; interim analysis) was 2.2% and the “ORR (confirmed)” value ([2]; interim analysis, RECIST v1.1) was 182 (67.9) n (%). The “Best objective response: Complete response” value ([2]; interim analysis, confirmed) was 6 (2.2) n (%), the “Best objective response: Partial response” value ([2]; interim analysis, confirmed) was 176 (65.7) n (%) and the “Median DoR (95% CI)” value ([2]; interim analysis, confirmed responders) was 5.1 (4.9-5.3) months. For the same substance, the “Median DoR (95% CI)” value ([2]; interim analysis, confirmed responders, listed as durvalumab plus EP) was 5.1 months, the “Odds ratio (95% CI) for ORR versus EP” value ([2]; interim analysis) was 1.56 (1.095-2.218) and the “Odds ratio (95% CI) for ORR versus EP” value ([2]; interim analysis, listed as durvalumab plus EP) was 1.56. For the same substance, the “unconfirmed and confirmed objective response rates, amount higher versus EP” value ([2]; updated analysis) was “approximately 10%”, the “Any treatment-related event leading to death” value [3] was 6 (2) n (%) and the “Alopecia, treatment-related” value ([4]; Any grade) was 75 (28) n (%). The “Anaemia, treatment-related” value ([4]; Any grade) was 85 (32) n (%), the Any treatment-related event ([4]; Any grade) was 237 (89) n (%) and the “Any treatment-related event leading to discontinuation” value ([4]; Any grade) was 16 (6) n (%). The “Any treatment-related serious event” value ([4]; Any grade) was 35 (13) n (%), the “Asthenia, treatment-related” value ([4]; Any grade) was 27 (10) n (%) and the “Constipation, treatment-related” value ([4]; Any grade) was 23 (9) n (%). The “Decreased appetite, treatment-related” value ([4]; Any grade) was 33 (12) n (%), the “Diarrhoea, treatment-related” value ([4]; Any grade) was 17 (6) n (%) and the “Fatigue, treatment-related” value ([4]; Any grade) was 30 (11) n (%). For the same substance, the “Febrile neutropenia, treatment-related” value ([4]; Any grade) was 15 (6) n (%), the “Hyperthyroidism, treatment-related” value ([4]; Any grade) was 22 (8) n (%) and the “Hypothyroidism, treatment-related” value ([4]; Any grade) was 23 (9) n (%). For the same substance, the “Leucopenia, treatment-related” value ([4]; Any grade) was 36 (14) n (%), the “Lipase increased, treatment-related” value ([4]; Any grade) was 10 (4) n (%) and the “Nausea, treatment-related” value ([4]; Any grade) was 74 (28) n (%). For the same substance, the “Neutropenia, treatment-related” value ([4]; Any grade) was 104 (39) n (%), the “Neutrophil count decreased, treatment-related” value ([4]; Any grade) was 24 (9) n (%) and the “Paraesthesia, treatment-related” value ([4]; Any grade) was 14 (5) n (%). The “Platelet count decreased, treatment-related” value ([4]; Any grade) was 14 (5) n (%), the “Pruritus, treatment-related” value ([4]; Any grade) was 11 (4) n (%) and the “Rash, treatment-related” value ([4]; Any grade) was 10 (4) n (%). The “Thrombocytopenia, treatment-related” value ([4]; Any grade) was 37 (14) n (%), the “Vomiting, treatment-related” value ([4]; Any grade) was 32 (12) n (%) and the “White blood cell count decreased, treatment-related” value ([4]; Any grade) was 12 (5) n (%). For the same substance, the “Alopecia, treatment-related” value ([4]; Grade 3 or 4) was 3 (1) n (%), the “Anaemia, treatment-related” value ([4]; Grade 3 or 4) was 21 (8) n (%) and the Any treatment-related event ([4]; Grade 3 or 4) was 121 (46) n (%). The “Any treatment-related event leading to discontinuation” value ([4]; Grade 3 or 4) was 3 (1) n (%), the “Any treatment-related serious event” value ([4]; Grade 3 or 4) was 25 (9) n (%) and the “Asthenia, treatment-related” value ([4]; Grade 3 or 4) was 2 (1) n (%). For the same substance, the “Constipation, treatment-related” value ([4]; Grade 3 or 4) was 0 n (%), the “Decreased appetite, treatment-related” value ([4]; Grade 3 or 4) was 1 (<1) n (%) and the “Diarrhoea, treatment-related” value ([4]; Grade 3 or 4) was 2 (1) n (%). For the same substance, the “Fatigue, treatment-related” value ([4]; Grade 3 or 4) was 2 (1) n (%), the “Febrile neutropenia, treatment-related” value ([4]; Grade 3 or 4) was 13 (5) n (%) and the “Hyperthyroidism, treatment-related” value ([4]; Grade 3 or 4) was 0 n (%). The “Hypothyroidism, treatment-related” value ([4]; Grade 3 or 4) was 0 n (%), the “Leucopenia, treatment-related” value ([4]; Grade 3 or 4) was 15 (6) n (%) and the “Lipase increased, treatment-related” value ([4]; Grade 3 or 4) was 8 (3) n (%). For the same substance, the “Nausea, treatment-related” value ([4]; Grade 3 or 4) was 0 n (%), the “Neutropenia, treatment-related” value ([4]; Grade 3 or 4) was 61 (23) n (%) and the “Neutrophil count decreased, treatment-related” value ([4]; Grade 3 or 4) was 16 (6) n (%). The “Paraesthesia, treatment-related” value ([4]; Grade 3 or 4) was 0 n (%), the “Platelet count decreased, treatment-related” value ([4]; Grade 3 or 4) was 4 (2) n (%) and the “Pruritus, treatment-related” value ([4]; Grade 3 or 4) was 0 n (%). The “Rash, treatment-related” value ([4]; Grade 3 or 4) was 0 n (%), the “Thrombocytopenia, treatment-related” value ([4]; Grade 3 or 4) was 14 (5) n (%) and the “Vomiting, treatment-related” value ([4]; Grade 3 or 4) was 0 n (%). The “White blood cell count decreased, treatment-related” value ([4]; Grade 3 or 4) was 4 (2) n (%).

For “Tremelimumab: antibody that selectively binds a CTLA-4 polypeptide, as disclosed in U.S. Pat. No. 8,491,895”, the “cross-reactivity to related human proteins” value [5] is listed as “no cross-reactivity to related human proteins”, the “specific binding to Fc receptors” value [6] is listed as “minimal specific binding to Fc receptors” and the “induction of NK ADCC activity” value [7] is listed as “does not induce natural killer (NK) antibody-dependent cell-mediated cytotoxicity (ADCC) activity”.
